Assay results published in paper PMC7210961.

Assays:
[1] = target: human Nav1.9 with C-terminal GFP (hNav1.9-GFP), wild type (human) (UniProt Q9UI33)
[2] = target: human Nav1.7 (hNav1.7), wild type (human) (UniProt Q15858)
hNav1.7 E818R (human) = hNav1.7 E818R (human) (UniProt Q15858)
[3] = target: Nav1.8/1.7 DII s3b-s4 chimaera (reverse chimaera: DII s3b-s4 of Nav1.7 built into Nav1.8) (rat | human)

Q: Which inhibition of the fast inactivation of hNav1.9 currents in ND7/23 cells, dose-response (whole-cell patch clamp), EC50 [1] does the source give for “HpTx1 (spider peptide toxin; rational nomenclature κ-sparatoxin-Hv1a) (from UniProt P58425 1-33)” here?
A: The inhibition of the fast inactivation of hNav1.9 currents in ND7/23 cells, dose-response (whole-cell patch clamp), EC50 was 470 nM.

Q: What about the dose-dependent inhibition of hNav1.7 currents in HEK293T cells (whole-cell patch clamp), IC50 [2] of the same substance?
A: The dose-dependent inhibition of hNav1.7 currents in HEK293T cells (whole-cell patch clamp), IC50 was 510 nM.

Q: What about the fold reduction in HpTx1 activity (IC50 of current inhibition) against WT hNav1.7 (whole-cell patch clamp) (hNav1.7 E818R (human)) of the same substance?
A: The fold reduction in HpTx1 activity (IC50 of current inhibition) against WT hNav1.7 (whole-cell patch clamp) was 20 fold.

Q: And the dose-dependent inhibition of the currents of the reverse chimaeric channel by HpTx1 (whole-cell patch clamp), IC50 [3]?
A: The dose-dependent inhibition of the currents of the reverse chimaeric channel by HpTx1 (whole-cell patch clamp), IC50 was 3000 nM.
